Experimental data from article PMC9935389, “Structural insights into the regulation of Cas7-11 by TPR-CHAT”.

Target: DmCas7-11;DmTPR-CHAT full-length (Desulfonema magnum;Desulfonema magnum, UniProt A0A975GRY4;A0A975BRS1 1-1785;1-822, |)
Experiment: cryo-EM; Craspase complex with full TPR-CHAT, 3.2 A; PDB 7ZOL or 7ZOQ (assignment not stated); EMSA: 32.5 mM HEPES-NaOH pH 7.5, 100 mM NaCl, 2.5 mM DTT, 1 U/ul RNase inhibitor, 50 nM RNA, 30 min on ice; no Mg2+ listed
Conditions: protein: recombinant;recombinant; tags: 6xHis (N-terminal);Twin-Strep (N-terminal); copies: 1;1; single strand

Chain of DmCas7-11;DmTPR-CHAT full-length (chain, as listed by the source |, chain 1 of 2): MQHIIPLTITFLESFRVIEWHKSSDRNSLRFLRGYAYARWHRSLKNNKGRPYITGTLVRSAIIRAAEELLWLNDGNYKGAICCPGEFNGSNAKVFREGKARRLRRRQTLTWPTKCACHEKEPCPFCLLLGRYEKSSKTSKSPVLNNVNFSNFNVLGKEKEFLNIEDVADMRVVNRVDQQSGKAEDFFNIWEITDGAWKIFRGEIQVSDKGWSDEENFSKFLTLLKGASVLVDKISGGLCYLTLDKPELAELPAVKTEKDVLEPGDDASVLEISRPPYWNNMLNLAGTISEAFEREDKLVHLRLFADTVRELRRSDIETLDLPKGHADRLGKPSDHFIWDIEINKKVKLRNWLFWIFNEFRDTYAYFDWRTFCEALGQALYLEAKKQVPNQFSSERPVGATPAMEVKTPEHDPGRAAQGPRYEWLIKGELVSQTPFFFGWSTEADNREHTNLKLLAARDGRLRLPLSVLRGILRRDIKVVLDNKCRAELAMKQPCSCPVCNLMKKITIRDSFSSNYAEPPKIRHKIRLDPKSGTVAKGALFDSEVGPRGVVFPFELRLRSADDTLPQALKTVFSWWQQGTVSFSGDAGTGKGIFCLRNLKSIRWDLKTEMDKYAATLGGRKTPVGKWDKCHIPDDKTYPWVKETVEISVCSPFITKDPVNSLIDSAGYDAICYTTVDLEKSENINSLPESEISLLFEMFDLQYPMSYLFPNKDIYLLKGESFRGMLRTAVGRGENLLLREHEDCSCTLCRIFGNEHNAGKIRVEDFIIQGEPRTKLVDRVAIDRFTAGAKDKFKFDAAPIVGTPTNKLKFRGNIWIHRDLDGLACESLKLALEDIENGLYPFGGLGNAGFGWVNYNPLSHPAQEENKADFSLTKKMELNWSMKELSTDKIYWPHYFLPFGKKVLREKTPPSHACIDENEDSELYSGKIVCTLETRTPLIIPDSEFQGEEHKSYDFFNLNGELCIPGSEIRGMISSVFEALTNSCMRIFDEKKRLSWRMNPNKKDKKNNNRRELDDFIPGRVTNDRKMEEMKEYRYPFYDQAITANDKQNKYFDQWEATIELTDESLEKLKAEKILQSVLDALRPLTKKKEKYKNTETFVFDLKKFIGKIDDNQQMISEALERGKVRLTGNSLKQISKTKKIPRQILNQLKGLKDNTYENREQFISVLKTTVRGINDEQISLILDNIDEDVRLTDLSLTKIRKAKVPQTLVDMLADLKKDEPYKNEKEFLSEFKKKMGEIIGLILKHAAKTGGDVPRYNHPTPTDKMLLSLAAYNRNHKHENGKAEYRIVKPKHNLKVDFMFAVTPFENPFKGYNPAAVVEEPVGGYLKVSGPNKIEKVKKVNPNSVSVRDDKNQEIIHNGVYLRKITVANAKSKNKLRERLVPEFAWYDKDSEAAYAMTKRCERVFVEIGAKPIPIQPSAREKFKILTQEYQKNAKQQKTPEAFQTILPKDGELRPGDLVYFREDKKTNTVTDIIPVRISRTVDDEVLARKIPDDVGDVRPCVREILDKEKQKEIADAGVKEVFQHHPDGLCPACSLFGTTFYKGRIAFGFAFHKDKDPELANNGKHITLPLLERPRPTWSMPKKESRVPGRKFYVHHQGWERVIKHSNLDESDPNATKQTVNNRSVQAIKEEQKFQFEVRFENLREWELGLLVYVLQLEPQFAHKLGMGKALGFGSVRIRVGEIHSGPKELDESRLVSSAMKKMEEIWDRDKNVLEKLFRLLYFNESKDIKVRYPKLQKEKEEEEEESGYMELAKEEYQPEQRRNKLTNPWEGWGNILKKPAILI
Chain of DmCas7-11;DmTPR-CHAT full-length (chain, as listed by the source |, chain 2 of 2): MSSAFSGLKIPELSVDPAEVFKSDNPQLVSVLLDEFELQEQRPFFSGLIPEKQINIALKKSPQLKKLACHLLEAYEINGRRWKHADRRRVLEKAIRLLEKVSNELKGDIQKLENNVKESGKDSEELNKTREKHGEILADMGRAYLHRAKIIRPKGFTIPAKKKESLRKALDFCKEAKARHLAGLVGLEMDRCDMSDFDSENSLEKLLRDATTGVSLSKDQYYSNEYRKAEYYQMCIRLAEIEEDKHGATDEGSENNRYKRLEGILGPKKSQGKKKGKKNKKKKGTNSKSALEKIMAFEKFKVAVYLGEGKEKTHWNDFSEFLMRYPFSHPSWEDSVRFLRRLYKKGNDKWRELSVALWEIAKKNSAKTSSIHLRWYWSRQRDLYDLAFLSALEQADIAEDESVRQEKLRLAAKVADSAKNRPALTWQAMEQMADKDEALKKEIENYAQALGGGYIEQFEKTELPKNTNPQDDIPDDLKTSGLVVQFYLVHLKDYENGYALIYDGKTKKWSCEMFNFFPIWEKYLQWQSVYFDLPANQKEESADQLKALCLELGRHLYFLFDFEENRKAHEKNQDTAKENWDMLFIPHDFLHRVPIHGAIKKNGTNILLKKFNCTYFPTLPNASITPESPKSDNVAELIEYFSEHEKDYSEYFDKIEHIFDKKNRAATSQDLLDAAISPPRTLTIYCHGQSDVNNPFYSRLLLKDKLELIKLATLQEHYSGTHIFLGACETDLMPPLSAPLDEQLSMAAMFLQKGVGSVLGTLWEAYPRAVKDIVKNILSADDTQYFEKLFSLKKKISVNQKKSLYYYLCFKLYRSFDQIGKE

UUAUGUGAUGGAACCUCUCCGGAUAAUUCUAUCUCUUCUG (ssRNA) [crRNA (13+ nt 5' handle, spacer C15-G40 modelled)]: binds.
